Patent US5663064, “Ribozymes with RNA protein binding site” (University of Vermont)

Tests used:
R17 coat protein (R17cp) [1] = target: T1, R17 coat protein (R17cp) (bacteriophage R17, UniProt P69170 P69170:1-129); assay: filter; also gel shift; TMS or TMK buffer, 25 or 37 C; Kd said to agree with earlier studies but value not given; settings: chain copies: 2; hairpin with bulged A
Protocol: The reaction was initiated by adding R17 coat protein at various concentrations (0.01 nM to 1 μM). After at least 20 minutes of incubation at the desired temperature, 450 μl of the reaction mixture was filtered through pre-soaked nitrocellulose filter (Millipore-HAWP 024–0,45 μM). The amount of complex retained by the filter was determined by liquid scintillation counting. The amount of input RNA was determined by spotting a 20 μl aliquot of the reaction mixture on a filter. The fraction bound by the filter was plotted as a function of protein concentration. As previously described (Carey et al., supra; Schneider et al., 1992 J. Mol. Biol. 228, 862), the maximum amount of fraction complexed varied between 40 and 100% depending on the RNA preparation. Results were normalized to 100% of retention at saturation for purposes of calculations and to compare different experiments. […] Dissociation constant (Kd) values were then obtained from a non-linear least-square fit using sigmaplot software (Jandel Scientific). Standard error was calculated from the fit of the observed curve to the theoretical one (reported by the sigmaplot software).
A filter binding assay (Carey, et al., 1983 Biochemistry 22, 2601) is used to confirm the results from gel-shift assay described above. Referring to FIG. 9, the R17cp binds to HpR17 as well as it binds to its genuine binding site (R17bs). […]

R17 coat protein (R17cp) [2] = target: T1, R17 coat protein (R17cp); assay: filter; null mutant negative control; no specific complex in gel shift; settings: chain copies: 2; hairpin
Protocol: Association constants were determined by filter-binding assays (Carey et al., 1983 Biochemistry 22, 2601). Trace amount of labeled RNA (15–32 fmoles) was heat denatured and renatured in 500 μl of T.M.S buffer (40 mM Tris-HCl pH 8, 12 mM MgCl_2 and 2 mM spermidine) or TMK buffer (40 mM Tris-Acetate pH 8, 10 mM Mg.Acetate, 80 mM KCl). The reaction was initiated by adding R17 coat protein at various concentrations (0.01 nM to 1 μM). After at least 20 minutes of incubation at the desired temperature, 450 μl of the reaction mixture was filtered through pre-soaked nitrocellulose filter (Millipore-HAWP 024–0,45 μM). The amount of complex retained by the filter was determined by liquid scintillation counting. The amount of input RNA was determined by spotting a 20 μl aliquot of the reaction mixture on a filter. The fraction bound by the filter was plotted as a function of protein concentration. As previously described (Carey et al., supra; Schneider et al., 1992 J. Mol. Biol. 228, 862), the maximum amount of fraction complexed varied between 40 and 100% depending on the RNA preparation. Results were normalized to 100% of retention at saturation for purposes of calculations and to compare different experiments. […] Standard error was calculated from the fit of the observed curve to the theoretical one (reported by the sigmaplot software). […]

T1 sequence (P69170 whole entry, one chain of several): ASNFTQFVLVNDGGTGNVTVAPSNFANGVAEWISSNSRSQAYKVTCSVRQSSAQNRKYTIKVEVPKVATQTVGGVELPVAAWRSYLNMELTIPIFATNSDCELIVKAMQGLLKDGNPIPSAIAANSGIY

| Binder | binding result (R17 coat protein (R17cp) [1]) | binding result (R17 coat protein (R17cp) [2]) |
| --- | --- | --- |
| GAAACAUGAGGAUCACCCAUGUUU (ssRNA) [R17bs] | binds | – |
| GAAACAUGGGAUCACCCAUGUUU (ssRNA) [R17deltaA8] | – | no binding |
